This data set addresses Flag-TSC2 (UniProt P49815).

Flag-TSC2, sequence (P49815 whole entry): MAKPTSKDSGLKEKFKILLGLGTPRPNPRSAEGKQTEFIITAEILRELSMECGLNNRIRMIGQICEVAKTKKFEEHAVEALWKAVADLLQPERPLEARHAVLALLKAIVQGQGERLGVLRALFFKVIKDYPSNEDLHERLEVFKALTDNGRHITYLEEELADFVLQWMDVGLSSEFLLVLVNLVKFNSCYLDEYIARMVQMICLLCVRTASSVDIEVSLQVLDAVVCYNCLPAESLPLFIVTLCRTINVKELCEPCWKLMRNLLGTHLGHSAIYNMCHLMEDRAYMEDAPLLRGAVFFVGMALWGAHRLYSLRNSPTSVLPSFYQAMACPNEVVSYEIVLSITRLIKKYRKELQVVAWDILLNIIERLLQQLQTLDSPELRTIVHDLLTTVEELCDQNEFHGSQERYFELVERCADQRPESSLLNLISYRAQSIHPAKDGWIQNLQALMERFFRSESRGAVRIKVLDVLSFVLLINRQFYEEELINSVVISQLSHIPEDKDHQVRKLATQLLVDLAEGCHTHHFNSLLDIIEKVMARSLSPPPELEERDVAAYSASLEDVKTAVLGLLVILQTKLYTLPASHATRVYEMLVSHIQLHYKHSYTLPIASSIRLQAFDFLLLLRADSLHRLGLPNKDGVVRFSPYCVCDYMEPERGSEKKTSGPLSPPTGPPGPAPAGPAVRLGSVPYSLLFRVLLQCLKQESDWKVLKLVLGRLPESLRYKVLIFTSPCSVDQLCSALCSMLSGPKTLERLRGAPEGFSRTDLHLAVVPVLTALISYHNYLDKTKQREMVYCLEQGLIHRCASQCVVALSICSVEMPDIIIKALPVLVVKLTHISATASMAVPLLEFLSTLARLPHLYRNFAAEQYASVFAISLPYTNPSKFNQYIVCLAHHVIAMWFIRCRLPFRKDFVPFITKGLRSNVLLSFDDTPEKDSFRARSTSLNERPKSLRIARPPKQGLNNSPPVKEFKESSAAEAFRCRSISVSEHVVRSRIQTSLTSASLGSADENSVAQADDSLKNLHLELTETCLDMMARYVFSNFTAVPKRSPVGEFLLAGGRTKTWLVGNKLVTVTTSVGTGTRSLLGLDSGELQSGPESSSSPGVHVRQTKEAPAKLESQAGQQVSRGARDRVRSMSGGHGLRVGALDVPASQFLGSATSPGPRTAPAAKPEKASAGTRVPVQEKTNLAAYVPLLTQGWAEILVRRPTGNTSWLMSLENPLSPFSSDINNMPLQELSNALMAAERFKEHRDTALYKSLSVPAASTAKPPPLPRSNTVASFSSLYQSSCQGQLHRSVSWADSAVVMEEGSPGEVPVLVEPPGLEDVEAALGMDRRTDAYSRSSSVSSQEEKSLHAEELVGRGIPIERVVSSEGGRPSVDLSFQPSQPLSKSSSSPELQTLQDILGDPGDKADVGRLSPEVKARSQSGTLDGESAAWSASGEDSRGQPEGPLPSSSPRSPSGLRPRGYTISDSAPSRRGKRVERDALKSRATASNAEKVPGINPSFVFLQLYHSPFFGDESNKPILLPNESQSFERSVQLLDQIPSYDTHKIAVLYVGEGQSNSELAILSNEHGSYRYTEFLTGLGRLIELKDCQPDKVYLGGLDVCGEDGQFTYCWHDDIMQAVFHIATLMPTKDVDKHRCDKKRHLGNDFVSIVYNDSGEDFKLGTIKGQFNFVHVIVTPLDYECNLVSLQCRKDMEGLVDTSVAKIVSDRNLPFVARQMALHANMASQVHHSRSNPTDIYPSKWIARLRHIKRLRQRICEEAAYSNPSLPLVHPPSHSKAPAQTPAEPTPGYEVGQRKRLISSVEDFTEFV

Take HA-SGK1: the “phosphorylation of RXRXX(S/T) motifs on co-expression” value is recorded as “co-expression of SGK1 with TSC2 increased the phosphorylation of RXRXX(S/T) (SEQ ID NO: 1) motifs”.

(Values after patent US20180147232.)
